# Reference: the nanobody polyreactivity screen of Harvey et al. (2022)
# Test: yeast display, Sf9 membrane polyspecificity reagent, FACS + sequencing; frameworks hold sequencing errors
# How it was run: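 Genes from sorted yeast were amplified by colony PCR, read by MiSeq 2 × 250 sequencing and filtered on CDR length. These cells carried a synthetic nanobody library in Saccharomyces cerevisiae BJ5465 and were sorted by FACS into low and high (top ~1%) gates on anti-HA and streptavidin fluorescence. Polyreactivity is labelled according to the gate of origin.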
row,Sequence,polyreactivity (PSR sort gate)
1,QVQLVESGVGLDQAGGSLRLSCAASGSIIWYYAMGWYRQAPGKERELVAAITVSGGSTYYADSVKGRFTISRDNAKNTVYLEMNTLKPEDTAVYYCAALYISLSGDEYDYWGQGTQVTVSS,low polyreactivity
2,QVQLVESGGGLVQAGGSLRLSCAASGRTFSYYTMGWYRQAPGKERQLVARISNRGTNTYYADSVKGRFTISRDNAKNTVYLQMNSLKPEDTAVYYCAKYYYTSIVGYDSWGQGTQVTVSS,low polyreactivity
3,QVQLVESGGGLVQAGGSLRLSCAASGSTFYTYTAMGWYRQAPGKERELVAAITWRGGSTYYADSVKGRFTISRDNAKNTVYLQLNSLKPEDTAVYYCNTVHYYRDYDYWGQGTQVTVSS,high polyreactivity
4,QVQLVESGGGLVQAGGSLRLSCAASGFTFYRYTMGWYRQAPGKERELVAAISRRGGRTYYADSVKGRFTISRDYAKNSVYLQMNSLKPEDTAVYYCAADSAAYVFGEAYDYWGKGTQVTVSS,high polyreactivity
5,QVQLVESVGGLVQAGGSLRLSCAASGRTFWYYSMGWDREAPGKERELVAAITSGGSTNYADSVKGRFTISRDNAKNTVYLQIYSLKPEDTAVYYCDTDNPVFEYYYWGQGTQVTVSS,low polyreactivity
6,QVQLVESGGGLDQAGGSLRLSCAASGSTFVYYAMGWYRQAPGKERELVAAITASGGGTYYADSVKGSFTISRDNAKNTVYLQMNSLKPEDTAVYYCAANDYWYSRGDNQFYYRGQGTQVTVSS,low polyreactivity
7,KVQLVESGAGLVQAGGSLRLSCAASGITFGWYAMGWYRQAPGKERELVATINSGGSTNYADSVKGRFTISRDNAQNSVYLQMNSLKAEDTAVYYCAADGLIRWYDYWGQGTQVTVSS,low polyreactivity
8,QVQLVESGGGLVQAGGSLRLSCAASGRTYGYYAMGWYRQAPGKERELVAAITRSGGSTYYADSVKGRFTISRDNAKNTVYLQMNSLKPEDTAVYYCNAVYYKGYGYWGQGSQVTVSS,high polyreactivity
9,QVQLVESGGGLVQAGGSLRLSCAASGRTFHYYAMGWYRQAPGKERELVAGISRRGGSTSYADSVKGRFTISRDNAKNTLYLQMNSLKPEDTAVYYCNADRVTFSWPVNYYWVDYWGQGTQVTVSS,high polyreactivity
10,QVQLVESGGGLVQAGGSLRLSCAASGFTFRWYTMGWYRQAPGKERELVASINWSTGSTYYADSVKGRFTISRDNAKNTVYLQMNSLKPEDTAVYYCAATAWYNSYFGLDYWGQGTQVTVSS,high polyreactivity
11,QVQLVESGGGLVQAGGSLRLSCAASGGIFRVYAMGWYRQAPGNERELVAAINGRGTSTYYADSVKGRFTISRDNAKNTVYLQMNSLKPEDTAVYYCAASGQYHYDYWGQGTQVTVSS,high polyreactivity
12,QVQLVESGGGLVQAGGSLRLSCAASGRTFYSYAMGWYRQAPGKERELVAAISWNGGSTYYADSVKGRFTISRDNAKNTVYLQMNSLKPEDTAVYYCAAVPLRNRWPNSWPALDYWGQGTQVTVSS,high polyreactivity
13,QVQLVESAGGLVQAGGSLRLSCDASGSILDSNAMGWYRQAHGKERELVAAITSGGSTYYADSVKGRFTISRDNAKNTVYLQMNSLKPEDTAVYYCAAVDIYKYYQYYAFPYYRYDSWGQGTQVTVSS,low polyreactivity
14,QVQLVESGGGLVQAGGSLRLSCAASGRILRYYAMGWYRQAPGKELELVASISRGGSTYYADSVKGRFTISRDNAKNTVYLQMNSLKPEDTAVYYCATEVRRSTREFGYWGQGTQVTVSS,high polyreactivity
15,QVQLVESGGGLVQAGGSLRLSCAASGFTFYKNAMGWYRQAPGKERELVAAITSSGGSTYYADSVKGRFTISRDNAKNTVYLQMNSLKPEDTAVYYCAARASRPRFGYWGQGTQVTVSS,high polyreactivity
16,QVQLVESGGGLVQAGGSLRLSCAASGSIFRNYAMGWYRQAPGKERELVASIRYSGGRTNYADSVKGRFTISRDNAKNTVYLQMNSLKPEDTAVYYCAADPGYGWQRAYYYWGQGTQVTVSS,high polyreactivity
17,QVQLVESGGGLVQSGGSLRLSCAASGSIFYTNAMGWYRQAPGKERELVAAISYGGTTTYADSVKGRFTISRDNAKNTVYLQMNSQKPEDTAVYYCNADWLYYGYWGYGHIWYDYWGQGTQVTVSS,low polyreactivity
18,QVQLVESGGGLVQAGGSLRLSCAASGSIFGGNAMGWYRQPPGKERELVAAITDGGNTNYADSVKGRFTISRDNAKNTVYLQMNSMKPEDTAVFYCAARIPGTYGGRYGYDYWGQGTQVTVSS,low polyreactivity
19,QVQLVESGGGLVMAGGRLRLSCAASGSTFGYYAMGWYRQAPGKERELVAVITTRVGSTYYADSVKGRFTFSRDNAKNTVYLQMNSLKPEDTAVYYCNASGRTRSYSGSFSKHYYWGQGTQVTVSS,high polyreactivity
20,QVQLVESGGGLVQAGGSLRLSCAASGRTFYPNVMGWYRQAPGKERELVAAISRGGSTYYADSVKGRFTISRDNAKNTVYLQMNSLKPEDTAVYYCAATHYGHSISYWFDYWGQGTQVTVSS,high polyreactivity
21,QVQLVESGGGLVQAGGSLRLSCAASGRTFNQYAMGWYRQAPGKVRELVAAISRPTGRTYYADSVKGRFTISRDNAKNTVYLQMNSLKPEDTAVYYCAKADNRSPVDNGFDYWGQVTQVTVSS,high polyreactivity
22,QVQHVESGGGLVQAGRSLRLTSAASGIIFSGYAIGWYRQAPGKERHLVAAISSRCGGTYYADSVKGRFTISRDNAKNTVYFPLNSLKPEDTALYYCAAKRPACIQYSYYYWGQGTQVTVSS,high polyreactivity

row,Sequence,polyreactivity (PSR sort gate)
1,QVQLVESGGGLVQAGGSLRLSCAASGFIFYKYAMGWYRQAPGKERELVAAISRSGSTYYADSVKGRFTISRDNAKNTVYLQMNSLKPDDTAVYYCNALTYFKRSEYYWGQGTQVTVSS,high polyreactivity
2,QVQLVESGGGLVQAGGSLRLSCAASGIIFYDYAMVWYRQAPGKERELVAAISWGGGSTSYADSVKGRFTISRDNAKNTVYLQMNSLKPEDTAVYYCNKVSLSKRRDYYWGQGTQVTVSS,high polyreactivity
3,QVQLVESGGGLVQAGGSLRLICAASGSTFYTYAMGWYRQAPGKEREFVAAIRWRGGSTYYADSVKGRFTISRDNSKNTVFLQMNSLKPEDTAVYYCAAVSPGTVTNGKSRDYWGQGTQVTVSS,high polyreactivity
4,QVQLVESGGGLVQAGGSLRLSCAASGLTFTAYAMGWYRQAPGKERELVAAISVRGGRTYYADSVKGRFTISRDNAKNTVYLQMNSLKPEDTAVYYCNAVRFISARYDYWGQGTQVTVSS,high polyreactivity
5,QVQLVESGGGLVHAGGSLRLSCAASGRTVKNNAMGWYRQSPGKERDLVAAISSTGSTNYADSVKGRFTISRDNAKNPVYLQMNSLKPADTAVYYCAAEGIFRYYTQATMEYWGQGTQVTVSS,low polyreactivity
6,QVQHVDSGGGLVQTGGSLLLSCAAYGRTFCVNDMGWYRQAAGKEREFVAAITWRGDSTYYADSVKGRFTISRDNAKNTVYLQMNSLKPEDSAVYYCNADVISLYDHPDYLYLFDYWGQGTQVTVSS,low polyreactivity
7,QVQLVESGGGLVQAGGSLRLSCAASGRTFRGYAMGWYRPAPGKERELVAVISRGGRTNYADSVKGRFTISRDNAKNTVYLQMNSLKPEDTAVSYCAAEVAFIYSLRYDYWGQGTQVTVSS,high polyreactivity
8,QVQLVESGGGLVQAGGSLRLRCAASGRIFSTYAMGWYRQAPGKERALVAAINKIGGSTYYADSVKGRFTISRDNAKNTVYLQMNSLKPEDTAVYYCAADAPFYPVRRYYYWGQGTQVTVSS,low polyreactivity
9,QVQLVESGGGLVQAGGSLRLSCAASGSTFIIYAMGWYRQEPGKEREFVATITGRGGRTYYAVSVKGRFTISRDNAKNTVYLQMNSLKPEDTAVYYCAKGLGSGQEIYGYDYGGQGTQVTVSS,high polyreactivity
10,QVQIVESGGGLVQAGGSLRLSCAASGLTLGRNAMGWYRQAPGKERELVAAITQSGGSTYYADSVKGRFTISRDNAKNTVYLQMNSLKPEDTAVYYCAAEVVRQWHGIGYDYWGHGTQVTVSS,low polyreactivity
11,QVQLVESGGGLVQAGGSLRLSCAASGFIFYPYAMGWYRQAPGKERELVAAITGSGGSTYYADSVKGRFTISRDNAKNTVYLQMNSLKPEDTAVYYCAAYYGPRKMDYWGQGTQVTVSS,high polyreactivity
12,QVQLVESGGGLVQAGGRLRLSCAASGITFSYYAMGRYRQAPGKERELVAAISSGGRTYYADSVKGRFTISRDNAKNTVYLQMNSLKQEDTAVYYCAASFLVTSREYDYWGQGTQVTVSS,high polyreactivity
13,QVQLVDSGGGLVQAGGSLRLSCAASGFIFPVYTMGWYRQAPGKERELVAAITQIGGSTQYADSVKGRFTISRDNAKNTVYLQMNSLKPEDTAVYYCAVDYDSYWYGTYVNEYVYWGQGTQVTVSS,low polyreactivity
14,QVQLVESGGGLVQAGGSLRLSCAASGSTFVYYAMGWYRQAPGKERELVATINYNGGSTSYADSVKGRFTISRDNEKNTVYLQMNSLKPEDTAVYYCAKDRYYTWGDYWGQGTQVTVSS,low polyreactivity
15,QVQLVESGGGLVQAGGSLRLSCAASGLTFGKYAMGWYRQAPGKERELVAAISRRGGSTYYADSVKGRFTISRDNANNTVYLQMNSLKPEDTAVYFCNTDTKHTGLDYWGQGTQVTVSS,high polyreactivity
16,QVQLVESGGGLVQEGGSLRLSCAASGRNFDVYAMGWYRQAPGKERELVAAITWDGGSTYYADSVKGRFTISRDNAKNSVYLQMNSEKPEDKAVYYCAAEPVYTQRKGYDYWGQGTQVTVSS,low polyreactivity
17,QVQLVESVVGLDQAGGSHRLSCAASGSIFATYAMGWYRHAPGKERELVAAITTRGGSTYYADSVKGRFTISRDNAKNTVYLLMYSLKPEDTAVYFCNALRWWSYGLNYCGQGTQVTVSS,high polyreactivity
18,QVQLVESGGGLVQAGGSLRLSCAASGFTFSGYAMGWYRQAPGKERELVAASTRRTGTTYYADSVKGRFTISRDNAKNTVYLQMNSLKPEDTAVYYCNKGYPSPPAGEYGYWGQGTQVTVSS,high polyreactivity
19,QVQLVESGGGLLQAGGSLRLSCAASGRTFSYYAMGWYRQAPGKERELVAAISWRGGSTYYADSVKGRFTISRDNAKNTVYLQMNSLKPEDTAVYYCAALPRYALGEDYWGQGSQVTVSS,high polyreactivity
20,QVQLVESGGGLVQAGGSLRLSCAASGIIFGGNVMGWYRQAPGKERELVAAISGGGGRTHYADSVKGRFTISRDNAKNTVYLQMNSLKPEDTAVYYCAVVTRYRYDYWGQGTQVTVSS,high polyreactivity
21,QVQLVESGGGLDQAGGSLRLSCAASGRTFTVNTMGWYIQAPGKERELVAAIPNGGSTNYADSVKGRFTISHDNAKNTVYLQMNSLKPEDTAVYYCAAYYYYTLYYRYDYWGQGTQVTVSS,low polyreactivity
